# Test results from IntAct's records for PubMed 16698797.
# B1: Protein O-mannosyl-transferase 1 (Homo sapiens), Q9Y6A1 (parent)
# chain: MWGFLKRPVVVTADINLSLVALTGMGLLSRLWRLTYPRAVVFDEVYYGQYISFYMKQIFFLDDSGPPFGHMVLALGGYLGGFDGNFLWNRIGAEYSSNVPVWSLRLLPALAGALSVPMAYQIVLELHFSHCAAMGAALLMLIENALITQSRLMLLESVLIFFNLLAVLSYLKFFNCQKHSPFSLSWWFWLTLTGVACSCAVGIKYMGVFTYVLVLGVAAVHAWHLLGDQTLSNVGADVQCCMRPACMGQMQMSQGVCVFCHLLARAVALLVIPVVLYLLFFYVHLILVFRSGPHDQIMSSAFQASLEGGLARITQGQPLEVAFGSQVTLRNVFGKPVPCWLHSHQDTYPMIYENGRGSSHQQQVTCYPFKDVNNWWIVKDPRRHQLVVSSPPRPVRHGDMVQLVHGMTTRSLNTHDVAAPLSPHSQEVSCYIDYNISMPAQNLWRLEIVNRGSDTDVWKTILSEVRFVHVNTSAVLKLSGAHLPDWGYRQLEIVGEKLSRGYHGSTVWNVEEHRYGASQEQRERERELHSPAQVDVSRNLSFMARFSELQWRMLALRSDDSEHKYSSSPLEWVTLDTNIAYWLHPRTSAQIHLLGNIVIWVSGSLALAIYALLSLWYLLRRRRNVHDLPQDAWLRWVLAGALCAGGWAVNYLPFFLMEKTLFLYHYLPALTFQILLLPVVLQHISDHLCRSQLQRSIFSALVVAWYSSACHVSNTLRPLTYGDKSLSPHELKALRWKDSWDILIRKH
# partner: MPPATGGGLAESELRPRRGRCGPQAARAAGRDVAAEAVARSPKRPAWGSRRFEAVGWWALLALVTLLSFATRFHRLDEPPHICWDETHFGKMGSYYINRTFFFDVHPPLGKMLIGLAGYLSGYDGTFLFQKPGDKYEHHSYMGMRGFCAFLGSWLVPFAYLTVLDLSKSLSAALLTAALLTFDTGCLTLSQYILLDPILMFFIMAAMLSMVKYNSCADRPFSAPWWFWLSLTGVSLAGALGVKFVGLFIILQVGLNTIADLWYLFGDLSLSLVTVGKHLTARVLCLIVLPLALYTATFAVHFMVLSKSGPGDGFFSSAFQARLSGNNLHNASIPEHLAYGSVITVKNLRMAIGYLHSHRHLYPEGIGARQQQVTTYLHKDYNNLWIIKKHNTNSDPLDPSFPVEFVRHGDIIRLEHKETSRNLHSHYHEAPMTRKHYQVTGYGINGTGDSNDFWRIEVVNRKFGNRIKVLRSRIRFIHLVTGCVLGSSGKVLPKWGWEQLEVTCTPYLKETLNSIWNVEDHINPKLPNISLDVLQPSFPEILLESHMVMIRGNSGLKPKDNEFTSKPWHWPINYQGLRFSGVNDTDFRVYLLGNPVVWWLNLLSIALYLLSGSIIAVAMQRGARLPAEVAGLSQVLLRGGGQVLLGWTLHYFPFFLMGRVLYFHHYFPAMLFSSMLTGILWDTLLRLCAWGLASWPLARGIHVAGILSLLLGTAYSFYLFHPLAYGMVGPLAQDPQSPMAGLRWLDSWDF
# Variants of: B1
# Settings: with pomt2_human POMT2, Q9UKY4
row,Variant,effect of a mutation on the interaction
1,G65R,with no effect
2,V428D,with no effect
3,A200P,with no effect
4,W582C,with no effect
5,G76R,with no effect
